Values joined by “and” are separate entries in the source; they are usually repeats but may differ in a detail not shown here. Equal values may be shown once. Read-outs that look alike come from different tables or passages of the source.

Test [1] concerns the target T1, enzymatically active free PSA (York PSA) (Homo sapiens, UniProt P07288).
T1 construct: 50% cleavage of the noted. oligopeptide-cytotoxic agent conjugates with enzymatically active free PSA were then calculated; purchased York
In words: Recognition/cleavage of oligopeptide-vinca drug conjugates by free PSA (HPLC). It counts as biochemical. The following applies: for Time to 50% Substrate Cleavage by York PSA: conjugate to PSA molar ratio 100 to 1, pH7.4 buffer. The procedure: The conjugates prepared as described in Example 3 were individually dissolved in PSA digestion buffer (50 mM tris(hydroxymethyl)-aminomethane pH7.4, 140 mM NaCl) and the solution added to PSA at a molar ration of 100 to 1. Alternatively, the PSA digestion buffer utilized is 50 mM tris(hydroxymethyl)-aminomethane pH7.4, 140 mM NaCl. The reaction was quenched after various reaction times by the addition of trifluoroacetic acid (TFA) to a final 1% (volume/volume). Alternatively the reaction is quenched with 10 mM ZnCl2. The quenched reaction was analyzed by HPLC on a reversed-phase C18 column using an aqueous 0.1 % TFA/acetonitrile gradient. The amount of time (in minutes) required for 50% cleavage of the noted. oligopeptide-cytotoxic agent conjugates with enzymatically active free PSA were then calculated.

The subject of the next test is Colo320DM cells. As to the kind of experiment: In vitro cytotoxicity, Alamar Blue assay, Colo320DM control cells (do not express free PSA). It counts as cell-based. The following applies: 72 HRS, read-out: Colo320DM cell kill EC 50 (in parentheses). The procedure:
(§1) Specifically, cell cultures of LNCap prostate tumor cells, Colo320DM cells (designated C320) or T47D cells in 96 well plates was diluted with medium containing various concentrations of a given conjugate (final plate well volume of 200 μl). […] The cells were incubated for 3 days at 37° C., 20 μl of Alamar Blue is added to the assay well. The cells were further incubated and the assay plates were read on a EL-310 ELISA reader at the dual wavelengths of 570 and 600 nm. at 4 and 7 hours after addition of Alamar Blue. Relative percentage viability at the various concentration of conjugate tested was then calculated versus control (no conjugate) cultures and an EC50 was determined. Unless otherwise indicated, the acetate salt of the conjugate was tested.

The subject of test [2] is LNCap prostate tumor cells. In words: In vitro cytotoxicity, Alamar Blue assay, LNCaP cells. The following applies: read-out: LNCaP Cell Kill in 72 HRS EC 50. Format: cell-based. The procedure: as §1
Test [3] concerns the target T1, enzymatically active free PSA (York PSA). As to the kind of experiment: Recognition/cleavage of oligopeptide-vinca drug conjugates by free PSA (HPLC). Format: biochemical.

T1 sequence (P07288 25-261): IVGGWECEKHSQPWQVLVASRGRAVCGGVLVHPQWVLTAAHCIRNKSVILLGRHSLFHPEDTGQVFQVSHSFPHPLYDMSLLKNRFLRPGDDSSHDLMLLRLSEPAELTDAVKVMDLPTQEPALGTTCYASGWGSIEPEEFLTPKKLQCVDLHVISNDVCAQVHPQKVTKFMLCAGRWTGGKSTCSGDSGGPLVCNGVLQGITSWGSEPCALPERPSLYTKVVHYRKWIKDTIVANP

Regarding 4-O-[Ac-SChgQS-Aib-P]-dAc-VIN, the “Substrate cleavage by York PSA at 1 HOUR” value in test [1] is given as 1 HOUR = 8%.
For the molecule `CC[C@]1(O)C[C@@H]2CN(CCc3c([nH]c4ccccc34)[C@@](C(=O)OC)(c3cc4c(cc3OC)N(C)[C@H]3[C@@](O)(C(=O)OC)[C@H](OC(C)=O)[C@]5(CC)C=CCN6CC[C@]43[C@@H]65)C2)C1` [VINBLASTINE, reference compound], the EC50 came to 500 nM in the test with Colo320DM cells (Homo sapiens, COLO 320DM) and 500 nM in test [2] (Homo sapiens, LNCaP, 72 h).
With `CC[C@]1(O)C[C@H]2CN(CCc3c([nH]c4ccccc34)[C@@](C(=O)OC)(c3cc4c(cc3OC)N(C)[C@H]3[C@@](O)(C(=O)OC)[C@H](OC(=O)CNC)[C@]5(CC)C=CCN6CC[C@]43[C@@H]65)C2)C1` [4-O-sarcosyl-(dAc)-VIN], the EC50 is 1800 nM in the test on Colo320DM cells and 1300 nM in test [2] (72 HRS).
For the molecule “4-O-(Ac-3-Pal-SSChgQ(dS)-P)-dAc-VIN (XSSXQXP; D-residues; non-natural residues)”, the “Substrate cleavage by York PSA at 3 HOURS” value in test [1] (3 HOURS) stood at 3 HOURS = 0%.
In the case of “4-O-[Ac-SSChgQ-S(dS)-4-trans-L-Hyp]-dAc-VIN”, the “Substrate cleavage by York PSA at 1 HOUR” value in test [1] is reported as 1 HOUR = 14%.
Turning to 4-O-[Ac-SChgQSS-Pip]-dAc-VIN, the “Time to 50% Substrate Cleavage by York PSA” value in test [1] amounted to 15 min.
For “4-O-[Ac-4-trans-L-HypSSChgQ-(dS)SP]-dAc-VIN”, in test [3], the “Time to 50% Substrate Cleavage by York PSA, 10 X ENZ” value was 6 HOURS (10 X.
With Ac-AbuSSChgQ-(dS)-(4-O-P)-dAc-VIN, the “Substrate cleavage by York PSA at 1 HOUR” value in test [1] came to 1 HOUR = 0%.
Regarding “(4-O)-Ac-(4-trans-L-Hyp)SSChgQ-SL-(dAc)-VIN (XSSXQSL; non-natural residues)”, in test [1], the “Time to 50% Substrate Cleavage by York PSA” value was 35 min.
On to `CCC1(O)CC2CN(CCc3c([nH]c4ccccc34)C(C(=O)OC)(c3cc4c(cc3OC)N(C)C3C(O)(C(=O)OC)C(OC(=O)C5CC(O)CN5)C5(CC)C=CCN6CCC43C65)C2)C1` [(4-O-4-trans-L-Hyp)-dAc-VIN], for which the results for the EC50 (with Colo320DM cells; in test [2] (72 HRS)) were 1100 nM and 600 nM, respectively.
For the molecule “4-O-[(2-OH)Ac-SChgQSS-Sar]-dAc-VIN (XXQSSX; N-methyl; non-natural residues)”, the “Substrate cleavage by York PSA at 1 HOUR” value in test [1] worked out at 1 HOUR = 4%.
Turning to 4-O-[Ac-SChgQSS-Aib-P]-dAc-VIN, the “Time to 50% Substrate Cleavage by York PSA” value in test [1] is 15 min and 23 min.
As to “4-O-(Ac-SSChgQ-SS-P)-dAc-VIN (XSXQSSP; non-natural residues)”, the “Time to 50% Substrate Cleavage by York PSA” value in test [1] was 15 min.

The record behind these values is patent publication US20040081659A1, “Conjugates useful in the treatment of prostate cancer” (Merck & Co., Inc., priority 1997, published 2004).
